Experimental data published in PMC9482650, “Quantitative fragmentomics allow affinity mapping of interactomes” (Nature Communications, 2022).

Experiments:
Assay in all cases: holdup assay
Design in all cases: key: below the threshold = too weak to quantify, mostly under pKd 3.1 to 4
DLG5_1, Q8TDM6 = target: DLG5_1, Q8TDM6
APBA1_1, Q02410 = target: T1, APBA1_1, Q02410
T1 sequence (Q02410 651-752, limits assumed, looked up): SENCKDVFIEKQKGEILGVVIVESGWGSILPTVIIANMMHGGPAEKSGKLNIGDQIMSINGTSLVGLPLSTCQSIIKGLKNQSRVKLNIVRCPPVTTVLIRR

RADIL, Q96JH8 = target: T2, RADIL, Q96JH8
T2 sequence (Q96JH8 971-1071, limits assumed, looked up): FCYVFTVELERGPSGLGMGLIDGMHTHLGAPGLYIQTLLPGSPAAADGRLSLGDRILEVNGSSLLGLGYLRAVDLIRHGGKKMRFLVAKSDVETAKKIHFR

MPDZ_10, O75970 = target: T3, MPDZ_10, O75970
T3 sequence (O75970 1624-1722, limits assumed, looked up): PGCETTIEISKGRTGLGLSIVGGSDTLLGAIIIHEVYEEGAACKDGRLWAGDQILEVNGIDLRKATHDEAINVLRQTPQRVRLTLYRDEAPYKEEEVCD

PARD3B_1, Q8TEW8 = target: T4, PARD3B_1, Q8TEW8
T4 sequence (Q8TEW8 196-299, limits assumed, looked up): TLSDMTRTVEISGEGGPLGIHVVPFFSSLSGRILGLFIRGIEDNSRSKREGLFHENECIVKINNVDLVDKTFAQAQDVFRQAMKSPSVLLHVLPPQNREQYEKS

Inadl_9, Q8NI35 = target: Inadl_9, Q8NI35
GOPC, Q9HD26 = target: GOPC, Q9HD26
IL16_1, Q14005 = target: IL16_1, Q14005
APBA2_1, Q99767 = target: T5, APBA2_1, Q99767
T5 sequence (Q99767 563-664, limits assumed, looked up): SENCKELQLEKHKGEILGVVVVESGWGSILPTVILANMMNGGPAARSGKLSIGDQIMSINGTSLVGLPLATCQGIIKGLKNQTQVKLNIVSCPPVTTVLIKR

MPDZ_5, O75970 = target: T6, MPDZ_5, O75970
T6 sequence (O75970 695-796, limits assumed, looked up): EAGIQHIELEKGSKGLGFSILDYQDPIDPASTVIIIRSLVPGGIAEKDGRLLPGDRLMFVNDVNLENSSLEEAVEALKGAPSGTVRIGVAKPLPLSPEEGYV

MPDZ_12, O75970 = target: T7, MPDZ_12, O75970
T7 sequence (O75970 1857-1958, limits assumed, looked up): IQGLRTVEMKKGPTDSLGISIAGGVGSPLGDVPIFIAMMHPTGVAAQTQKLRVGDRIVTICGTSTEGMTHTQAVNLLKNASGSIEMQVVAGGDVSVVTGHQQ

RAPGEF6, Q8TEU7 = target: T8, RAPGEF6, Q8TEU7
T8 sequence (Q8TEU7 525-625, limits assumed, looked up): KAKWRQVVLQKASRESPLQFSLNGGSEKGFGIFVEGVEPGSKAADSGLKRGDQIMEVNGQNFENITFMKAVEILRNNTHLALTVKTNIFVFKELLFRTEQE

FRMPD2_2, Q68DX3 = target: FRMPD2_2, Q68DX3
MAGI3_2, Q5TCQ9 = target: MAGI3_2, Q5TCQ9
SCRIB_1, Q14160 = target: SCRIB_1, Q14160
GRID2IP_1, A4D2P6 = target: GRID2IP_1, A4D2P6
DLG1_3, Q12959 = target: DLG1_3, Q12959
MAGI2_4, Q86UL8 = target: MAGI2_4, Q86UL8
ARHGAP21, Q5T5U3 = target: T9, ARHGAP21, Q5T5U3
T9 sequence (Q5T5U3 45-169, limits assumed, looked up): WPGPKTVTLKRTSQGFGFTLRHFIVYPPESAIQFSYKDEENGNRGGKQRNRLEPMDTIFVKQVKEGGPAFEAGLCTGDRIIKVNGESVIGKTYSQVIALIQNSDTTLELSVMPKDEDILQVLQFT

NHERF4_2, Q86UT5 = target: NHERF4_2, Q86UT5
LNX1_1, Q8TBB1 = target: LNX1_1, Q8TBB1
AHNAK1, Q09666 = target: AHNAK1, Q09666
GRASP, Q7Z6J2 = target: GRASP, Q7Z6J2
NHERF4_1, Q86UT5-2 = target: NHERF4_1, Q86UT5-2
LAP2, Q96RT1 = target: LAP2, Q96RT1
SHANK1, Q9Y566 = target: T10, SHANK1, Q9Y566
T10 sequence (Q9Y566 658-767, limits assumed, looked up): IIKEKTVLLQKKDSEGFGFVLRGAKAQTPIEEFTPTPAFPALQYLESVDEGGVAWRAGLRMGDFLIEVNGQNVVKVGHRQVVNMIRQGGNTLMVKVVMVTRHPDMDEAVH

[1] = plain residues with an end cap or a label only (N-terminal biotin on a linker: ttds)
[2] = plain residues with an end cap or a label only (N-terminal biotin on a linker: ado-ado)
[3] = plain residues with an end cap or a label only (N-terminal biotin on a linker: gsgsgs; C-terminal amide)
[4] = plain residues with an end cap or a label only (N-terminal biotin on a linker: ahx)

Measured: pKd

Sequence of LNX1_1, Q8TBB1 (Q8TBB1 261-371): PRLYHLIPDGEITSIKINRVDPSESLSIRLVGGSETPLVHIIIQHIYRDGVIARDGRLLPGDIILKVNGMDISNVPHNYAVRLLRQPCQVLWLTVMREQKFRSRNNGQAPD
Sequence of IL16_1, Q14005 (Q14005 210-306): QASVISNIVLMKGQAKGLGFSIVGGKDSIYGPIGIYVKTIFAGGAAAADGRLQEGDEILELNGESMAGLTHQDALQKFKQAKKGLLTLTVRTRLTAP
Sequence of DLG5_1, Q8TDM6 (Q8TDM6 617-713): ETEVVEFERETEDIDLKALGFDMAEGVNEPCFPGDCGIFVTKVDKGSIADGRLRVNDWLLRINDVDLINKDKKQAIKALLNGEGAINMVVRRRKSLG
Sequence of SCRIB_1, Q14160 (Q14160 718-814): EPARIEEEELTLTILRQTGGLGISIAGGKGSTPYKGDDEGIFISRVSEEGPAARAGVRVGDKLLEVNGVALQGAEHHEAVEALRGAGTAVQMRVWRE
Sequence of MAGI3_2, Q5TCQ9 (Q5TCQ9 398-503): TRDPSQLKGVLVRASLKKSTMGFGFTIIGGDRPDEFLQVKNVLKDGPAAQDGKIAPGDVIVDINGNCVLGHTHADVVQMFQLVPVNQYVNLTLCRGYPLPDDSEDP
Sequence of MAGI2_4, Q86UL8 (Q86UL8 772-865): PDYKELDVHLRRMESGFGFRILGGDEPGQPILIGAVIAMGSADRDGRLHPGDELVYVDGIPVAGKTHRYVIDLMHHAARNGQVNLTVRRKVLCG
Sequence of Inadl_9, Q8NI35 (Q8NI35 1530-1615): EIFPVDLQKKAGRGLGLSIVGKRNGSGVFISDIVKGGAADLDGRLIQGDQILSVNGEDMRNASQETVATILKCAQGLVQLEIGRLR
Sequence of AHNAK1, Q09666 (Q09666 4-100): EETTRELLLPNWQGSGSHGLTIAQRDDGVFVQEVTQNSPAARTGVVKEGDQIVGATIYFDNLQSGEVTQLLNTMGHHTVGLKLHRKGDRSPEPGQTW
Sequence of NHERF4_1, Q86UT5-2 (Q86UT5 other isoform, or with tags, fused parts or gaps): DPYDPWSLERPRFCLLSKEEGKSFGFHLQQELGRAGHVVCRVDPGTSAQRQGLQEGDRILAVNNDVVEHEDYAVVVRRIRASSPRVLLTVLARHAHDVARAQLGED
Sequence of DLG1_3, Q12959 (Q12959 457-571): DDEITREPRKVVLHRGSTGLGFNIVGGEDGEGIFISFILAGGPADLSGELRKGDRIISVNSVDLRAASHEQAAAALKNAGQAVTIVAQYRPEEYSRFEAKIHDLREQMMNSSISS
Sequence of NHERF4_2, Q86UT5 (Q86UT5 220-308): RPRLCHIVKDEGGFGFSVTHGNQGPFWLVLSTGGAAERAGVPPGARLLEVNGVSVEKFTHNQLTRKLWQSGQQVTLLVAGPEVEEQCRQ
Sequence of GRID2IP_1, A4D2P6 (A4D2P6 1-87): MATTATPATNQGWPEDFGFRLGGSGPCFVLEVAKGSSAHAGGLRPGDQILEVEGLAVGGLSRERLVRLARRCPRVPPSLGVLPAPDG
Sequence of LAP2, Q96RT1 (Q96RT1 other isoform, or with tags, fused parts or gaps): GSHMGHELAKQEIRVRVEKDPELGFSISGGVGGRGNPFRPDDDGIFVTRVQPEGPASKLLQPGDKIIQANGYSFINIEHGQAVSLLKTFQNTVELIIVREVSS
Sequence of GRASP, Q7Z6J2 (Q7Z6J2 96-193): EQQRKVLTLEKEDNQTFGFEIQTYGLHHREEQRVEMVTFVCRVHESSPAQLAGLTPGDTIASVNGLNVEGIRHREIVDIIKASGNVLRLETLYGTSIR
Sequence of FRMPD2_2, Q68DX3 (Q68DX3 944-1038): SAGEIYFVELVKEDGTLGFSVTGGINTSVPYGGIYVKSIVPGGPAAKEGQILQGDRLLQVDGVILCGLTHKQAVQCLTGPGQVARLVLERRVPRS

B1: SLC16A1, P53985 (peptide)
chain: GGPKEEESPV
4.26: IL16_1, Q14005; [1]
4.01: FRMPD2_2, Q68DX3; [1]
below the threshold: DLG5_1, Q8TDM6; [1] | APBA1_1, Q02410; [1] | RADIL, Q96JH8; [1] | MPDZ_10, O75970; [1] | PARD3B_1, Q8TEW8; [1] | Inadl_9, Q8NI35; [1] | GOPC, Q9HD26; [1] | APBA2_1, Q99767; [1] | MPDZ_5, O75970; [1] | MPDZ_12, O75970; [1] | RAPGEF6, Q8TEU7; [1] | MAGI3_2, Q5TCQ9; [1] | GRID2IP_1, A4D2P6; [1] | DLG1_3, Q12959; [1] | MAGI2_4, Q86UL8; [1] | ARHGAP21, Q5T5U3; [1] | NHERF4_2, Q86UT5; [1] | LNX1_1, Q8TBB1; [1] | AHNAK1, Q09666; [1] | GRASP, Q7Z6J2; [1] | NHERF4_1, Q86UT5-2; [1] | LAP2, Q96RT1; [1] | SHANK1, Q9Y566; [1]
5.18: SCRIB_1, Q14160; [1]

B2: CES2, O00748 (peptide)
chain: EEPEERHTEL
4.62: GRASP, Q7Z6J2; [2]
4.09: NHERF4_1, Q86UT5-2; [2]
3.71: PARD3B_1, Q8TEW8; [2]
3.52: DLG1_3, Q12959; [2]
4.55: SHANK1, Q9Y566; [2]
3.8: LNX1_1, Q8TBB1; [2]
below the threshold: DLG5_1, Q8TDM6; [2] | APBA1_1, Q02410; [2] | RADIL, Q96JH8; [2] | MPDZ_10, O75970; [2] | Inadl_9, Q8NI35; [2] | GOPC, Q9HD26; [2] | IL16_1, Q14005; [2] | APBA2_1, Q99767; [2] | MPDZ_5, O75970; [2] | MPDZ_12, O75970; [2] | FRMPD2_2, Q68DX3; [2] | MAGI3_2, Q5TCQ9; [2] | GRID2IP_1, A4D2P6; [2] | MAGI2_4, Q86UL8; [2] | ARHGAP21, Q5T5U3; [2] | NHERF4_2, Q86UT5; [2] | AHNAK1, Q09666; [2] | LAP2, Q96RT1; [2]
3.56: RAPGEF6, Q8TEU7; [2]
4.21: SCRIB_1, Q14160; [2]

B3: ARAP3_int, Q8WWN8 (peptide)
chain: ELIQDTSTSFSTTREW
4.4: SHANK1, Q9Y566; [3]
below the threshold: DLG5_1, Q8TDM6; [3] | APBA1_1, Q02410; [3] | RADIL, Q96JH8; [3] | MPDZ_10, O75970; [3] | PARD3B_1, Q8TEW8; [3] | Inadl_9, Q8NI35; [3] | GOPC, Q9HD26; [3] | IL16_1, Q14005; [3] | APBA2_1, Q99767; [3] | MPDZ_5, O75970; [3] | MPDZ_12, O75970; [3] | RAPGEF6, Q8TEU7; [3] | FRMPD2_2, Q68DX3; [3] | MAGI3_2, Q5TCQ9; [3] | SCRIB_1, Q14160; [3] | GRID2IP_1, A4D2P6; [3] | DLG1_3, Q12959; [3] | MAGI2_4, Q86UL8; [3] | ARHGAP21, Q5T5U3; [3] | NHERF4_2, Q86UT5; [3] | LNX1_1, Q8TBB1; [3] | AHNAK1, Q09666; [3] | GRASP, Q7Z6J2; [3] | NHERF4_1, Q86UT5-2; [3] | LAP2, Q96RT1; [3]

B4: TMEM215, Q68D42 (peptide)
chain: QGRWDHETIV
3.64: AHNAK1, Q09666; [4]
3.92: Inadl_9, Q8NI35; [4]
4: MAGI2_4, Q86UL8; [4]
3.99: GOPC, Q9HD26; [4]
4.83: RADIL, Q96JH8; [4]
3.57: PARD3B_1, Q8TEW8; [4] | SHANK1, Q9Y566; [4]
below the threshold: DLG5_1, Q8TDM6; [4] | APBA1_1, Q02410; [4] | MPDZ_10, O75970; [4] | APBA2_1, Q99767; [4] | MPDZ_5, O75970; [4] | MPDZ_12, O75970; [4] | RAPGEF6, Q8TEU7; [4] | GRID2IP_1, A4D2P6; [4] | ARHGAP21, Q5T5U3; [4] | NHERF4_2, Q86UT5; [4] | GRASP, Q7Z6J2; [4] | NHERF4_1, Q86UT5-2; [4]
4.17: LNX1_1, Q8TBB1; [4]
4.11: SCRIB_1, Q14160; [4]
3.68: DLG1_3, Q12959; [4]
4.09: LAP2, Q96RT1; [4]
4.66: MAGI3_2, Q5TCQ9; [4]
4.4: IL16_1, Q14005; [4] | FRMPD2_2, Q68DX3; [4]

B5: HPV51-E6, P26554 (peptide)
chain: RTRQRNETQV
4.56: SCRIB_1, Q14160; [1]
5.83: MAGI3_2, Q5TCQ9; [1]
4.4: MAGI2_4, Q86UL8; [1]
4.54: DLG1_3, Q12959; [1]
below the threshold: DLG5_1, Q8TDM6; [1] | APBA1_1, Q02410; [1] | MPDZ_10, O75970; [1] | PARD3B_1, Q8TEW8; [1] | Inadl_9, Q8NI35; [1] | IL16_1, Q14005; [1] | APBA2_1, Q99767; [1] | MPDZ_5, O75970; [1] | MPDZ_12, O75970; [1] | RAPGEF6, Q8TEU7; [1] | GRID2IP_1, A4D2P6; [1] | ARHGAP21, Q5T5U3; [1] | NHERF4_2, Q86UT5; [1] | LNX1_1, Q8TBB1; [1] | AHNAK1, Q09666; [1] | GRASP, Q7Z6J2; [1] | NHERF4_1, Q86UT5-2; [1] | SHANK1, Q9Y566; [1]
3.41: FRMPD2_2, Q68DX3; [1]
3.72: GOPC, Q9HD26; [1]
3.69: LAP2, Q96RT1; [1]
3.82: RADIL, Q96JH8; [1]
